Results published in patent US9840539B2, “High affinity digoxigenin binding proteins” (UNIVERSITY OF WASHINGTON THROUGH ITS CENTER FOR …, priority 2013, dated 2017).
Where a chain is given by its changes, count along the chain named. Names and notes keep the numbering of the source.

B1: DIG10.3: DIG10.2 variant with C23S, H90L, V92A, A99Y, S103A, L105W; SEQ ID NO: 15 (protein)
chain: MNAKEIVVHALRLLENGDARGWSDLFHPEGVLEYPYPPPGYKTRFEGRETIWAHMRLFPEYMTIRFTDVQFYETADPDLAIGEFHGDGVLTASGGKLAYDYIAVWRTRDGQILLYRLFFNPLRVLEPLGGVEAAAKIVQGA
modifications: (130)..(141) amino acids are optionally absent
B2: DIG10.3 Y34F/Y99F/Y101F: DIG10.3 triple mutant, SEQ ID NO: 22 (protein)
chain: B1 chain with Y34F, Y99F, Y101F
modifications: (130)..(141) amino acids are optionally absent
B3: DIG10.3 Y101F: DIG10.3 point mutant, SEQ ID NO: 19 (protein)
chain: B1 chain with Y101F
modifications: (130)..(141) amino acids are optionally absent

Legend:
[1] = Fluorescence polarization equilibrium competition binding assay, unlabeled digoxigenin; conditions: for Ki: steroid Digoxigenin (DIG), PBS pH 7.4, 25° C., read-out: Inhibition Constant (Ki)
Method: (§1) Proteins were expressed in E. coli Rosetta 2 (DE3) cells with a C-terminal TEV protease cleavable His6 tag for biochemical assays. For crystallographic analysis of DIG10 variants, a 12-amino acid structurally disordered C-terminus deriving from the scaffold protein 1z1s was replaced directly with a His6 tag. Binding affinities were determined by equilibrium fluorescence polarization^30 on a SpectraMax M5e microplate reader by monitoring the anisotropy of DIG-conjugated Alexa488 as a function of protein concentration. Equilibrium fluorescence polarization competition assays were performed by examining the effect of increasing concentrations of unlabeled DIG, digitoxigenin, progesterone, and β-estradiol on the anisotropy of designed protein-DIG-conjugated Alexa488 complex.
(§2) Fluorescence polarization binding assays. Fluorescence polarization-based affinity measurements of designs and their evolved variants were performed as described^46 using Alexa488-conjugated DIG (DIG-PEG3-Alexa488). Fluorescence anisotropy (r) was measured in 96-well plate format on a SpectraMax M5e microplate reader (Molecular Devices) with λex=485 nM and λem=538 nM using a 515 nm emission cutoff filter. Fluorescence polarization equilibrium competition binding assays were used to determine the binding affinities of DIG10.3 and its variants for unlabeled digoxigenin, digitoxigenin, progesterone, β-estradiol, and digoxin. The inhibition constant for each protein-ligand interaction, Ki, was calculated from the measured total unlabeled ligand producing 50% binding signal inhibition (I50) and the Kd of the protein-label interaction according to a model accounting for receptor-depletion conditions^46.
(§3) Fluorescence polarization equilibrium competition binding assays. Fluorescence polarization equilibrium competition binding assays were used to determine the binding affinities of DIG10.3 and its variants for unlabeled digoxigenin, digitoxigenin, progesterone, β-estradiol, and digoxin. […] Unlabeled stock solutions of digoxigenin, digitoxigenin, progesterone, and β-estradiol were prepared in methanol. Unlabeled stock solutions of digoxin were prepared in DMSO. Ligand stock solutions were 10 mM for DIG, digitoxigenin, and digoxin, and 1 mM for progesterone and β-estradiol. For each ligand concentration, a negative control sample containing only DIG-PEG3-Alexa488 and the appropriate dilution of a corresponding methanol-only control solution in PBS was measured.
(§4) Fluorescence anisotropy (r) was measured as noted above. In all experiments, PBS (pH 7.4) was used as the buffer system and the temperature was 25° C. The concentration of total unlabeled ligand producing 50% binding signal inhibition (I50) was determined by fitting a plot of the anisotropy averaged over a period of 30 min to 3 hr after reaction initiation versus unlabeled ligand concentration as described previously^47. For some experiments, limiting steroid concentrations made it impossible to collect data in the regime of complete inhibition. In these cases, data were fit by fixing the anisotropy at infinite steroid concentration to a value measured for other steroids for which this value could be determined experimentally. […]
The inhibition constant for each protein-ligand interaction, Ki, was calculated from the measured IC50 and the Kd of the protein-label interaction according to a model accounting for receptor-depletion conditions^47. […]

[2] = Fluorescence polarization equilibrium competition binding assay, unlabeled digitoxigenin; conditions: steroid digitoxigenin; PBS pH 7.4, 25° C.; read-out: Inhibition Constant (Ki)
Method: as §1
as §2, with “The inhibition constant for each protein-ligand interaction, Ki, was calculated from the measured total unlabeled ligand producing 50% binding signal inhibition (I50) and the Kd of the protein-label interaction according to a model accounting for receptor-depletion conditions^46.” left out
(§5) Fluorescence polarization equilibrium competition binding assays. Fluorescence polarization equilibrium competition binding assays were used to determine the binding affinities of DIG10.3 and its variants for unlabeled digoxigenin, digitoxigenin, progesterone, β-estradiol, and digoxin. […] For each ligand concentration, a negative control sample containing only DIG-PEG3-Alexa488 and the appropriate dilution of a corresponding methanol-only control solution in PBS was measured.
(§6) Fluorescence anisotropy (r) was measured as noted above. […]

[3] = Fluorescence polarization equilibrium competition binding assay, unlabeled progesterone; conditions: steroid progesterone; PBS pH 7.4, 25° C.; read-out: Inhibition Constant (Ki)
Method: as §1
as §2, with “The inhibition constant for each protein-ligand interaction, Ki, was calculated from the measured total unlabeled ligand producing 50% binding signal inhibition (I50) and the Kd of the protein-label interaction according to a model accounting for receptor-depletion conditions^46.” left out
as §5, §6

[4] = Fluorescence polarization equilibrium competition binding assay, unlabeled β-estradiol; conditions: steroid β-estradiol; PBS pH 7.4, 25° C.; read-out: Inhibition Constant (Ki)
Method: as §1
as §2, with “The inhibition constant for each protein-ligand interaction, Ki, was calculated from the measured total unlabeled ligand producing 50% binding signal inhibition (I50) and the Kd of the protein-label interaction according to a model accounting for receptor-depletion conditions^46.” left out
as §5, §6

[5] = Fluorescence polarization equilibrium competition binding assay, unlabeled digoxin
Method: as §2
as §3, with “Ligand stock solutions were 10 mM for DIG, digitoxigenin, and digoxin, and 1 mM for progesterone and β-estradiol.” left out
as §4, with “In all experiments, PBS (pH 7.4) was used as the buffer system and the temperature was 25° C.” left out, “For some experiments, limiting steroid concentrations made it impossible to collect data in the regime of complete inhibition.” left out

Molecule | DIG binding affinity relative to widely used anti-DIG antibodies [1] | affinity for DIG (in words) [1] | Ki [1] [nM] | Ki [2] [nM] | Ki [3] [nM] | Ki [4] [nM] | affinity for digoxin (in words) [5] | affinity for digoxin compared with DIG ([5]; competition FP) | Ki ([5]; steroid digoxin, PBS pH 7.4, 25° C., read-out: Inhibition Constant (Ki)) [nM]
B1 | within a factor of two | picomolar affinity | 0.653 ± 0.262 | 19 ± 7 | 243 ± 91 | 2100 ± 800 | picomolar affinity | slightly higher than that for DIG | 0.223 ± 0.105
B2 | – | – | 580 ± 229 | < 16 | < 17 | 1600 ± 600 | – | – | –
B3 | – | – | 39 ± 8 | < 3.8 | 30 ± 9 | 1700 ± 400 | – | – | –
